Results as given in the supplement of paper PMC10567573.

B1: EHMT1 (parent)
chain: SARQGELQKVLLMLVDGIDPNFKM

Variants of: B1
Assay: protein stability index of a GFP-peptide fusion (GPS, HEK-293T) (PSI 1-6); higher = more stable
Settings: c terminus: a fixed tail appended
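Further: lentivirally expressed fusions sorted by FACS into six bins by GFP to DsRed ratio, PSI derived from sequencing read proportions per bin multiplied by bin number.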

First: SARQGILQKVLLMLVDGIDPNFKM [E6I]
Second: SARQGELQKVLLMLVDGIDPNFKL [M24L]
The protein stability index of the first is higher: 3.51 for the first, 1.93 for the second.

Going from SARQGELQKVLLMLVDGIDPNFKY [M24Y] to SARQGELQKVLLMLVDGIDPNFKN [M24N], the protein stability index falls from 1.9 to 1.48.

Compared with SARQGELQKVLLMLVDGIDPNFKQ [M24Q], SARQGELQKVLLMLHDGIDPNFKM [V15H] is lower in protein stability index: 1.84 for the first, 1.66 for the second.

Compared with SARQGELQKVLLMLEDGIDPNFKM [V15E], SARQGELQKVLLMLSDGIDPNFKM [V15S] is lower in protein stability index: 2.54 for the first, 1.83 for the second.

Going from SARQGELQKVLLMLLDGIDPNFKM [V15L] to SARQGELQKVLLMLRDGIDPNFKM [V15R], the protein stability index rises from 1.49 to 1.65.

First: SARQGELQKVLLMLYDGIDPNFKM [V15Y]
Second: SARQGELQKVLLMLGDGIDPNFKM [V15G]
The protein stability index of the first is lower: 1.68 for the first, 2 for the second.

Compared with SARQGELQKVLLMLPDGIDPNFKM [V15P], SARQGELQKVLLMLKDGIDPNFKM [V15K] is lower in protein stability index: 2.39 for the first, 2.25 for the second.

Going from SARQGELQKVLLMLIDGIDPNFKM [V15I] to SARQGELQKVLLMLQDGIDPNFKM [V15Q], the protein stability index rises from 1.72 to 2.17.

First: SARQGELQKVLLMLNDGIDPNFKM [V15N]
Second: YARQGELQKVLLMLVDGIDPNFKM [S1Y]
The protein stability index of the first is higher: 2.56 for the first, 1.45 for the second.

Going from QARQGELQKVLLMLVDGIDPNFKM [S1Q] to CARQGELQKVLLMLVDGIDPNFKM [S1C], the protein stability index rises from 2.03 to 2.34.

Going from LARQGELQKVLLMLVDGIDPNFKM [S1L] to FARQGELQKVLLMLVDGIDPNFKM [S1F], the protein stability index rises from 1.03 to 1.97.

Compared with TARQGELQKVLLMLVDGIDPNFKM [S1T], GARQGELQKVLLMLVDGIDPNFKM [S1G] is lower in protein stability index: 2.12 for the first, 2.05 for the second.

Compared with DARQGELQKVLLMLVDGIDPNFKM [S1D], SARQWELQKVLLMLVDGIDPNFKM [G5W] is higher in protein stability index: 1.18 for the first, 2.55 for the second.

Compared with SARQYELQKVLLMLVDGIDPNFKM [G5Y], SARQFELQKVLLMLVDGIDPNFKM [G5F] is higher in protein stability index: 1.92 for the first, 1.98 for the second.

Going from SARQPELQKVLLMLVDGIDPNFKM [G5P] to SARQTELQKVLLMLVDGIDPNFKM [G5T], the protein stability index falls from 3.53 to 3.12.

Compared with SARQSELQKVLLMLVDGIDPNFKM [G5S], SARQMELQKVLLMLVDGIDPNFKM [G5M] is higher in protein stability index: 1.64 for the first, 3.61 for the second.

Compared with SARQDELQKVLLMLVDGIDPNFKM [G5D], SARQGELQKVLLMLVDGIDPNFTM [K23T] is higher in protein stability index: 1.94 for the first, 2.02 for the second.

Going from SARQGELQKVLLMLVDGIDPNFEM [K23E] to SARQGELQKVLLMLVDGIDPNFDM [K23D], the protein stability index rises from 1.21 to 2.17.

Going from SARQGELQKVLLMLVDGIDPNFGM [K23G] to SARQGELQKVLLMLVDGIDPNFNM [K23N], the protein stability index rises from 1.19 to 1.3.

First: SARQGELQKVLLMLVDGIDPNHKM [F22H]
Second: SARQGELQKVLLMLVDGIDPNGKM [F22G]
The protein stability index of the first is lower: 1.56 for the first, 2.71 for the second.

First: SARQGELQKVLLMLVDGIDPNCKM [F22C]
Second: SARQGELQKVLLMLVDGIDPNTKM [F22T]
The protein stability index of the first is lower: 1.82 for the first, 2.21 for the second.

Compared with SARQGELQKVLLMLVDGIDPNEKM [F22E], SARQGELQKVLLMLVDGIDPNPKM [F22P] is lower in protein stability index: 2.69 for the first, 1.76 for the second.

Compared with SARQGELQKVLLMLVDGIDPNWKM [F22W], SARQGELQKVLLMLVDGIWPNFKM [D19W] is lower in protein stability index: 2.49 for the first, 2.35 for the second.

First: SARQGELQKVLLMLVDGIEPNFKM [D19E]
Second: SARQGELQKVLLMLVDGIHPNFKM [D19H]
The protein stability index of the first is lower: 1.5 for the first, 3.59 for the second.

First: SARQGELQKVLLMLVDGIGPNFKM [D19G]
Second: SARQGELQKVLLMLVDGIKPNFKM [D19K]
The protein stability index of the first is higher: 2.8 for the first, 1.81 for the second.

First: SARQGELQKVLLMLVDGIDDNFKM [P20D]
Second: SARQGELQKVLLMLVDGIDTNFKM [P20T]
The protein stability index of the first is higher: 1.43 for the first, 1.27 for the second.

First: SARQGELQKVLLMLVDGIDQNFKM [P20Q]
Second: SARQGELQKVLLMLVDGIDHNFKM [P20H]
The protein stability index of the first is higher: 1.83 for the first, 1.75 for the second.

Going from SARQGELHKVLLMLVDGIDPNFKM [Q8H] to SARQGELTKVLLMLVDGIDPNFKM [Q8T], the protein stability index rises from 1.93 to 2.02.

First: SARQGELFKVLLMLVDGIDPNFKM [Q8F]
Second: SARQGELSKVLLMLVDGIDPNFKM [Q8S]
The protein stability index of the first is higher: 3.86 for the first, 1.87 for the second.

Compared with SARQGELKKVLLMLVDGIDPNFKM [Q8K], SARQGELNKVLLMLVDGIDPNFKM [Q8N] is higher in protein stability index: 1.57 for the first, 2.23 for the second.

Going from SARQGELPKVLLMLVDGIDPNFKM [Q8P] to SARQGELQKVLLMLVDGKDPNFKM [I18K], the protein stability index falls from 1.76 to 1.46.

First: SARQGELQKVLLMLVDGVDPNFKM [I18V]
Second: SARQGELQKVLLMLVDGEDPNFKM [I18E]
The protein stability index of the first is lower: 1.59 for the first, 2.49 for the second.

Going from SARQGELQKVLLMLVDGYDPNFKM [I18Y] to SARQGELQKVLLMLVDGLDPNFKM [I18L], the protein stability index falls from 2.76 to 2.07.

First: SARQGELQKVLLMLVDGADPNFKM [I18A]
Second: SARQGELQKVLLMLVDGQDPNFKM [I18Q]
The protein stability index of the first is lower: 1.18 for the first, 3.19 for the second.

Going from SARMGELQKVLLMLVDGIDPNFKM [Q4M] to SARTGELQKVLLMLVDGIDPNFKM [Q4T], the protein stability index falls from 3.05 to 2.01.

Going from SARIGELQKVLLMLVDGIDPNFKM [Q4I] to SARDGELQKVLLMLVDGIDPNFKM [Q4D], the protein stability index falls from 2.56 to 1.61.

Compared with SARFGELQKVLLMLVDGIDPNFKM [Q4F], SARGGELQKVLLMLVDGIDPNFKM [Q4G] is lower in protein stability index: 3.15 for the first, 1.83 for the second.

Going from SARLGELQKVLLMLVDGIDPNFKM [Q4L] to SARKGELQKVLLMLVDGIDPNFKM [Q4K], the protein stability index falls from 3.17 to 1.35.

Compared with SARCGELQKVLLMLVDGIDPNFKM [Q4C], SARQGELQKVLLMVVDGIDPNFKM [L14V] is higher in protein stability index: 2.29 for the first, 2.53 for the second.

Compared with SARQGELQKVLLMEVDGIDPNFKM [L14E], SARQGELQKVLLMTVDGIDPNFKM [L14T] is lower in protein stability index: 3.22 for the first, 1.7 for the second.

First: SARQGELQKVLLMNVDGIDPNFKM [L14N]
Second: SARQGELQKVLLMWVDGIDPNFKM [L14W]
The protein stability index of the first is higher: 3.02 for the first, 1.79 for the second.

First: SARQGELQKVLLMKVDGIDPNFKM [L14K]
Second: SARQGELQKVLLMFVDGIDPNFKM [L14F]
The protein stability index of the first is higher: 2.74 for the first, 1.93 for the second.

Going from SARQGELQKVLLMSVDGIDPNFKM [L14S] to SARQGELQKVLLMCVDGIDPNFKM [L14C], the protein stability index falls from 3.03 to 1.46.

Going from SARQGELQKVLLMIVDGIDPNFKM [L14I] to SARQGELQKVLLMMVDGIDPNFKM [L14M], the protein stability index rises from 1.98 to 3.99.

Compared with SARQGELQKVLLMHVDGIDPNFKM [L14H], SARQGELQKVLLMPVDGIDPNFKM [L14P] is higher in protein stability index: 2.38 for the first, 3.21 for the second.

First: SARQGELQKVLLMLVDGIDPGFKM [N21G]
Second: SARQGELQKVLLMLVDGIDPRFKM [N21R]
The protein stability index of the first is higher: 3.57 for the first, 1.26 for the second.

Going from SARQGELQKVLLMLVDGIDPKFKM [N21K] to SARQGELQKVLLMLVDGIDPIFKM [N21I], the protein stability index falls from 1.96 to 1.93.
